Source: US20100048709A1 (UNIVERSITY OF BRITISH COLUMBIA, published 2010)

Tests used:
[1] = target: T1, recombinant rat thioredoxin-fused AR ligand binding domain (PanVera, 48.4 kDa), P15207
T1 chain: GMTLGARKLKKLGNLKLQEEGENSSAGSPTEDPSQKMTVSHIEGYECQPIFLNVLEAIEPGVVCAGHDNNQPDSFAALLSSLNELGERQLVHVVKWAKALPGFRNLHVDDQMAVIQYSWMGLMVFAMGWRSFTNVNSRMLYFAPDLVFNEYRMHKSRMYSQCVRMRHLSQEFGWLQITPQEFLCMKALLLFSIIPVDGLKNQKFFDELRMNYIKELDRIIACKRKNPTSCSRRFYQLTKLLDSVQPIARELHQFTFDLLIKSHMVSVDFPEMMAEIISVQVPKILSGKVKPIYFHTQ

[2] = target: T2, recombinant rat thioredoxin-fused AR ligand binding domain (PanVera, 48.4 kDa) (rat, UniProt P15207 606-902); assay: cell-based or functional assay
T2 sequence (looked up): T1 chain

B1: purified His-tagged-DDC protein (6x-His N-terminal fusion of dopa decarboxylase) (enzyme, human, UniProt P20711 2-480, looked up, not shown: small tags and cut ends)
chain: NASEFRRRGKEMVDYMANYMEGIEGRQVYPDVEPGYLRPLIPAAAPQEPDTFEDIINDVEKIIMPGVTHWHSPYFFAYFPTASSYPAMLADMLCGAIGCIGFSWAASPACTELETVMMDWLGKMLELPKAFLNEKAGEGGGVIQGSASEATLVALLAARTKVIHRLQAASPELTQAAIMEKLVAYSSDQAHSSVERAGLIGGVKLKAIPSDGNFAMRASALQEALERDKAAGLIPFFMVATLGTTTCCSFDNLLEVGPICNKEDIWLHVDAAYAGSAFICPEFRHLLNGVEFADSFNFNPHKWLLVNFDCSAMWVKKRTDLTGAFRLDPTYLKHSHQDSGLITDYRHWQIPLGRRFRSLKMWFVFRMYGVKGLQAYIRKHVQLSHEFESLVRQDPRFEICVEVILGLVCFRLKGSNKVNEALLQRINSAKKIHLVPCHLRDKFVLRFAICSRTVESAHVQRAWEHIKELAADVLRAERE
R1881 concentration required to 50% saturate total AR-LBD protein [1]: in the absence of His-DDC, an R1881 concentration of 883 nM was required to 50% saturate total AR-LBD protein, while in the presence of His-DDC a lower androgen amount of 425 nM was necessary | apparent affinity for androgen (R1881) by the AR-LBD, hydroxylapatite pulldown ligand binding assay [2]: 2.1 fold | increase in bound R1881 at 100 nM R1881 [2]: 1.75 fold | increase in bound R1881 at 1000 nM R1881 [2]: 1.71 fold
